# Measurements reported in the DeepSol protein solubility set.
# Test: soluble on expression in E. coli; label from the status in PepcDB or PDB records
row,Sequence,soluble on expression in E. coli
1,MSSRLARFALSGYRIAGIAAYPFARPYLSYRAAKGKEDKRRRLERFGYASAERPRGPLVWFHAASVGETLALIPLIREIRKRDIFVLLTTGTVTSAELTRTRLGDDVIHQYVPLDIKIAVNRFLTYWAPDAAITAESEIWPVTMMELERRHIPQIRVNARLSDRSFDRWKARHDIAESLFSKLALVVAQSDLDAERFRDLGSWPVVISGNLKGDTDPPPCDEALLESYRKQVGNRKTWAAISTFDGEEKAAATVHAAIKSRNGQLTIIVPRHPERGDDVEAMLKGMNLSVARRSRNDVITPGTDIFLGDSIGEMGLYLRLTELAFVGRSLTAEGGQNPLEPAMLGCAVLSGAHVQNFREAYQKLIRAGGGRIIRDVEMLAKAVHYLLVNDNERYKMIDAGNRVIQDMRGALSSTVKALEPYINPLTVSAKLQPRSAIGSWLEHHHHHH,not soluble
2,MSSAIERKSLDPSEEPVDEVLQIPPSLLTCGGCQQNIGDRYFLKAIDQYWHEDCLSCDLCGCRLGEVGRRLYYKLGRKLCRRDYLRLFGQDGLCASCDKRIRAYEMTMRVKDKVYHLECFKCAACQKHFCVGDRYLLINSDIVCEQDIYEWTKINGMI,not soluble
3,MGSDKIHHHHHHMREVHVNDIKEAVKEAIIEANCVLPREVRVAFQEALKREESPIGREVLTQILENAEIAQYYYMPYCQDTGVDVIFVFLGQDVHVVGGSLEDAINQGVREATEEGYLRASMVWDPVFERKNTKDNTPAIIHYEVVPGDRVKIVVAPKGAGSENTSRLAMLKPADGWEGVKKFILETVKFAGPNACPPFTVGVGIGGNFEYCAYLAKKALLRPVGKRHENPLIAKVEEELLEEINKIGWGPMGFGGTVTAVDVKVEMYPCHIASLPVAVNIQCHANRHAERVV,not soluble
4,MKRLLVIGIMYTMFFLIGNIHLHADERTNVKEITSLEEPTWIFQAGISKGKYHDRQDLGFILQRNTPLKVRQTNPNFKDKLTVRLLSNDSKNEKSIQVGNEWITIQGDTPLVPFIDTPYGEEPALLEYQVGNESATKPLPIYKQQGSVSQFFSTWDQFDGEYALIQGESFQLFIPKKDKELVRSLKDFQSLDELIAYYEDIFAMYDSIIGLDGSTVENKKSQNRYFLKADISGAGGAYYGANWTANSTDSTKMWLDKLSWGTLHEIAHGYQAGFDNQGIFTGEVSNNLFGVQYQYSKYGKKADQVGWLFNFGKKEQVERNLYNALMKENKNYDDLDLRQKLILLTMAKQKAGDEAFAKMYQGYRKLASNAAFKKGDHSLPDLMNQYYSENVQVDFTPVFERWGFKLNHKQIEMNRAKGYPAVTSLAYIVPESQLAKARALVDPDIPINSNFEIVRNQQIASLGLKGNLHIHLNTNEIDTLKGGKIKLKEGNTVIQEKTIETADINLQDVPNGIYTVEISGGKTDSMYHFSTYYAYVKEKDNSLTIDVNEMKVSNLVNETIQFLGLGDDQFAELNTDLEQERAVFTVTTKTPHSYYAGEKYASIELFNEKGEKIYTKEMEGTNVTVVKDIIPLKEGYRIKIYHDEVKKRLTSKATIINPMNKTNEIIMTKWGLKNTYLKNNPEENLMKRIDEEMEVIISNPLLKEIPMQKLEMKKNVWMAINMLSEPQKITYINKYKDSLYNE,not soluble
5,MLVNFIKNFIPHRFYSSKTEIPVVRLHGAIIDSSSSIARTLSLGRCANLLDKAFAYKKAPAVAVIINSPGGSPVQSRLIFKRIRDLAEEKKKQVLMFIEDIAASGGYMIACAGDEIFADPSSIVGSIGVVSASFGFPELLKKIGIERRVYTAGKNKVTLDPFQPEKKTDIEHLKSLQLEVHKTFIDLVKERRAEKLSNDPNIFTGMFWSGKKSVELGLIDGLNDVRSVIKERFGDDTKLRLIIPPKSLFGPKTPSGVTAHAVHTAIDSALMVAQERALWQYYGLLEHHHHHH,soluble
6,MPLPMNSGEKVKAVGRSYNPGRPLCLEDRKKIVRLYEEGCRVSHIARLIGVTHSCVSKIMSRYRRTGSVQPRSFRATENQENDNATWQQQQLKQQQKKEKPLPFSIERF,soluble
7,MSLGEKHHMVLNRDQGITTRFSPQQKRLQLSSPKPYLLFFFTASCGACKEAIPYLNAIEEQWGERFEVIGVLGGSRGIKSDLEFLKRHSIRFKVLSDPSSSDYLSRAVGGVMGVPLFFFFDETGAPKEHFLGLVPQRVLEEEVRSLLEGHHHHHH,soluble
8,MSLSYSNILVAVAVTPESQQLLAKAVSIARPVKGHISLITLASDPEMYNQLAAPMLEDLRNVMQEETQSFLDKLIQDAGYPVDKTFIAYGELSEHILEVCRKHHFDLVICGNHNHSFFSRASCSAKRVITSSEVDVLLVPLTGDEGHHHHHH,soluble
